Legend:
LLC tumor = test: Tumor growth of LLC tumor-bearing mice treated with IR or anti-PD-L1 plus test agent; format: in vivo, mouse; details: LLC tumor-bearing B6 mice; agent combined with 20 Gy IR or anti-PD-L1
Protocol: Tumor models and treatments. 1×10^6 MC38, LLC, or B16-SIY tumor cells were subcutaneously injected into the flank of mice. On day 10 after tumor inoculation, tumors were either irradiated with one dose of 20 Gy or mice received sham treatment. For anti-PD-L1 treatment experiments, 200 μg anti-PD-L1 (10F.9G2) or isotype control was given by i.p. every three days for a total of four times starting on day 10 after tumor inoculation. For type I IFN blockade experiments, 200 μg anti-IFNAR1 were intratumorally injected on days 0 and 2 after irradiation. For CD4 or CD8 T cell depletion experiments, 200 μg anti-CD4 or anti-CD8 mAb was delivered four times by i.p. injection every 3 days starting 1 day before therapies. Artemin-neutralizing antibody was delivered i.t. at 1 μg/mouse starting on day of irradiation, every 2 days for 7 doses. For Ter-cell depletion, anti-ter119 was injected i.p. at 20 μg/mouse every 2 days for 4 doses. For Ter-cell or artemin treatment groups, mice were administered 1×10^7 purified Ter cells i.v. every other day for a total of three doses, or mice were treated with 0.5 μg/mouse artemin i.t. every other day starting on day 0 of therapies throughout the studies. For EPO treatment groups, mice were treated with 20 U/mouse EPO i.v. every other day throughout the studies, starting on day 0 of the therapies. IFN-γ was administered through intrasplenic injection on day 15 post tumor implantation at 2 μg/mouse for 1 dose. LOXO-292 was administered by oral gavaging at 100 μg/mouse/day throughout the entire studies, starting on day 0 of the therapies. Spleens were harvested on day 20 or at indicated times post-inoculation for analysis of spleen size or splenic cells. Tumor size was monitored and calculated with the formula for area (length×width).

MC38 cells = test: Colony formation assay of irradiated MC38 cells; format: cell-based, mouse; details: 0, 1 or 3 Gy; 100 ng/mL artemin
Protocol: FIG. 40. Colony formation assay of MC38 cells treated with 0, 1, or 3 Gy irradiation. MC38 cells were either co-cultured with 2×10^6 Ter-cells (left) sorted from spleens of tumor-bearing mice, or treated with 100 ng/mL artemin (right). Representative data are shown from three experiments. Data are represented as mean±SD. *p<0.05, **p<0.01, and ***p<0.001.

MC38-OTI-zsGreen cells = test: CD8+ T cell mediated killing (apoptosis) of MC38-OTI-zsGreen cells; format: cell-based, mouse; details: 100 ng/mL artemin for 6 h
Protocol: FIGS. 41A-41B. (FIG. 41A) Apoptosis of MC38 cells as analyzed by flow cytometry. 1×10^5 MC38-OTI-zsGreen cells were co-cultured with 2×10^5 CD8^+ T cells purified from OTI mice in 96-well U bottomed plates. Tumor cells were either co-cultured with 2×10^5 Ter-cells sorted from spleens of tumor-bearing mice or treated with 100 ng/mL artemin for 6 h. Representative data are shown from three experiments. Data are represented as mean±SD. *p<0.05, **p<0.01 and ***p<0.001. (FIG. 41B) Apoptosis of MC38 cells was analyzed by flow cytometry. 1×10^5 MC38-OTI-zsGreen cells were co-cultured with 2×10^5 CD8+ T cells purified from OTI mice in 96-well U bottom plates. Tumor cells were either co-cultured with 2×10^5 Ter-cells sorted from spleen of tumor-bearing mice or treated with 100 ng/mL artemin (ARTN) for 6 h. Representative data are shown from two or three experiments conducted with 3-5 mice or samples per group.

CD8 T cells = test: In vitro CD8 T cell treatment with artemin; format: cell-based, mouse; details: 24 hours
Protocol: (§1) FIGS. 71A-71I. […] (FIGS. 71A-71E) CD8 T cells were purified from WT spleen and treated with recombinant artemin for 24 hours (150 ng/mL for FIGS. 71B, 71C, 71D, and 71E). T proliferation was examined (FIG. 71A), and the indicated effector molecules were analyzed by flow cytometry (FIGS. 71B, 71C, and 71D) and q-PCR (FIG. 71E). (FIGS. 71F-71I) MC38 murine colon cancer tumors were treated with artemin (i.t.), and single cell suspensions of tumors were stained with indicated markers and examined by flow cytometry (FIGS. 71F, 71G, 71H, and 71I).
In vitro testing: CD8 T cell treatment with artemin. CD8 T cells were isolated from spleens of naïve mice. CD8 T cells were cultured with T cell activation beads for 3 days and labeled with DNA dye cellTrace violet, followed by co-culturing with 150 ng/mL recombinant artemin for 24 hours. T cells were then washed and stimulated by stimulation cocktail and protein transport cocktail for 6 hours before being subjected to intracellular antibody staining.

[1] = test system: MC38 murine colon cancer tumors; test: In vivo MC38 murine colon cancer treatment with artemin (i.t.), flow cytometry of tumor cells; set-up: species or system mouse
Protocol: as §1
FIGS. 72A-72C. […] MC38 tumor were digested into single cell suspension and stained with markers that characterize T cells, DCs, and MDSCs. Flow cytometry was performed. […] (FIG. 72B) Changes in CD4 T cells.
In vivo testing: MC38 murine colon cancer treatment with artemin. Established MC3 8 murine colon cancer tumors were treated with artemin by intra-tumoral injection. Tumors were digested into single cell suspension, stimulated and stained with intracellular antibodies. Cells were analyzed by flow cytometry.

[2] = test system: CD8 T cells and bone marrow derived MDSCs; test: qPCR of possible artemin receptors in CD8 T cells and MDSCs co-cultured with artemin; format: cell-based, mouse; details: co-culture with artemin
Description: (§2) FIGS. 73A-73D. Study of the effects of artemin and radiation on mRNA expression of possible artemin receptors in different immune cells. (FIG. 73A) mRNA level of known GDNF receptors in CD8+ T cells after co-culture with artemin. (FIG. 73B) mRNA level of known GDNF receptors in MDSCs (CD11b+Ly6C+) cells. GFRα1, GFRα3 and NCAM expression in DC (FIG. 73C) and natural killer (NK) cells (FIG. 73D) in tumors responding to artemin or/and radiation treatments. R1, GFRα1; R3, GFRα3.
Quantitative PCR (qPCR). Expression of possible artemin receptors GFRα1 (primers: SEQ ID NOs: 5, 6), GFRα3 (primers: SEQ ID NOs: 7, 8), Syndecan 3 (primers: SEQ ID NOs: 9, 10), NCAM (primers: SEQ ID Nos: 11, 12), and RET (SEQ ID Nos: 13, 14) was analyzed by qPCR in CD8 T cells and bone marrow derived MDSCs during co-culture with artemin.

[3] = test system: Lewis lung carcinoma (LLC) tumors; test: Flow cytometry of GFRα1, GFRα3 and NCAM in LLC tumors treated with artemin and/or IR; format: in vivo, mouse
Description: as §2
Radiation (IR) treatment analysis. We treated established Lewis lung carcinoma (LLC) tumors with control, artemin, IR, and artemin+IR (20 Gy IR). Flow cytometry with staining of GFRα1, GFRα3 and NCAM receptors was performed.

B1: artemin: Recombinant mouse artemin (1085-AR) from R&D Systems; neurotropic factor of the GDNF family (protein)
chain: AGTRSSRARTTDARGCRLRSQLVPVSALGLGHSSDELIRFRFCSGSCRRARSQHDLSLASLLGAGALRSPPGSRPISQPCCRPTRYEAVSFMDVNSTWRTVDHLSATACGCLG
Tumor growth: influence on the therapeutic effect of IR and PD-L1 blockade (LLC tumor): diminished the anti-tumor effects of IR and PD-L1 blockade
Radio-resistance of MC38 tumor cells (colony formation) (MC38 cells): increased the radio-resistance
CD8+ T cell mediated killing of tumor cells (MC38-OTI-zsGreen cells): impaired
CD8 T cell proliferation (CD8 T cells; 200 ng/mL): reduced CD8 T cell proliferation
Production of IFN-γ, granzyme B and TNFα in T cells (protein and RNA level) (CD8 T cells): decreases in production
CD4 T helper cell numbers [1]: not significantly changed
PD-L1 expression on dendritic cells (CD11C+) and MDSCs (CD11b+Ly6C+) [1]: induced PD-L1 expression
Treg percentage in CD4 T cells [1]: significantly increased
Frequency of total CD8 T cell among CD45+ cells ([1]; artemin i.t.): did not alter frequency
IFN-γ production in intratumoral T cells ([1]; artemin i.t.): not significant
Production of granzyme B and TNFα proteins in intratumoral T cells ([1]; artemin i.t.): significantly reduced
Expression of exhaustion markers PD-1, LAG3 and TIM3 ([1]; intratumoral T cells): did not change the expression
GFRα1 mRNA in MDSC cells [2]: induction of GFRα1
GFRα3 mRNA in CD8 T cells [2]: Induction of GFRα3
GFRα3 expression on NK cells [3]: induces GFRα3 expression
